Measurements taken from patent US20210388087A1 (Chugai, published 2021).

B1: GLS3000 H27dM (antibody, name in Kabat numbering, V domains shown)
VH: QVQLVESGGGVVQPGRSLRLSCAASGFTFSNAWMHWVRQAPGKGLEWVAQIKAKSNNYATYYAESVKGRFTISRDDSKNSLYLQMNSLKTEDTAVYYCRYVHYGAYYGVDAWGQGTTVTVSS
VL: DIVMTQSPLSLPVTPGEPASISCRSSQSLVMSNRNTYLHWYQQKPGQAPRLLIYKVSNRFSGVPDRFSGSGSGTDFTLKISRVEAEDVGVYYCGQGTQVPYTFGQGTKLEIK
notes: one-arm IgG as m2
B2: GLS3000 H34E (antibody, name in Kabat numbering, V domains shown)
VH: QVQLVESGGGVVQPGRSLRLSCAASGFTFSNAWMHWVRQAPGKGLEWVAQIKAKSNNYATYYAESVKGRFTISRDDSKNSLYLQMNSLKTEDTAVYYCRYVHYGAYYGVDAWGQGTTVTVSS
VL: DIVMTQSPLSLPVTPGEPASISCRSSQSLVHSNRNTYLEWYQQKPGQAPRLLIYKVSNRFSGVPDRFSGSGSGTDFTLKISRVEAEDVGVYYCGQGTQVPYTFGQGTKLEIK
notes: one-arm IgG as m2
B3: GLS3000 H34I (antibody, name in Kabat numbering, V domains shown)
VH: QVQLVESGGGVVQPGRSLRLSCAASGFTFSNAWMHWVRQAPGKGLEWVAQIKAKSNNYATYYAESVKGRFTISRDDSKNSLYLQMNSLKTEDTAVYYCRYVHYGAYYGVDAWGQGTTVTVSS
VL: DIVMTQSPLSLPVTPGEPASISCRSSQSLVHSNRNTYLIWYQQKPGQAPRLLIYKVSNRFSGVPDRFSGSGSGTDFTLKISRVEAEDVGVYYCGQGTQVPYTFGQGTKLEIK
notes: one-arm IgG as m2
B4: GLS3000 H34D (antibody, name in Kabat numbering, V domains shown)
VH: QVQLVESGGGVVQPGRSLRLSCAASGFTFSNAWMHWVRQAPGKGLEWVAQIKAKSNNYATYYAESVKGRFTISRDDSKNSLYLQMNSLKTEDTAVYYCRYVHYGAYYGVDAWGQGTTVTVSS
VL: DIVMTQSPLSLPVTPGEPASISCRSSQSLVHSNRNTYLDWYQQKPGQAPRLLIYKVSNRFSGVPDRFSGSGSGTDFTLKISRVEAEDVGVYYCGQGTQVPYTFGQGTKLEIK
notes: one-arm IgG as m2
B5: GLS3000 H34L (antibody, name in Kabat numbering, V domains shown)
VH: QVQLVESGGGVVQPGRSLRLSCAASGFTFSNAWMHWVRQAPGKGLEWVAQIKAKSNNYATYYAESVKGRFTISRDDSKNSLYLQMNSLKTEDTAVYYCRYVHYGAYYGVDAWGQGTTVTVSS
VL: DIVMTQSPLSLPVTPGEPASISCRSSQSLVHSNRNTYLLWYQQKPGQAPRLLIYKVSNRFSGVPDRFSGSGSGTDFTLKISRVEAEDVGVYYCGQGTQVPYTFGQGTKLEIK
notes: one-arm IgG as m2
B6: GLS3000 H27dW (antibody, name in Kabat numbering, V domains shown)
VH: QVQLVESGGGVVQPGRSLRLSCAASGFTFSNAWMHWVRQAPGKGLEWVAQIKAKSNNYATYYAESVKGRFTISRDDSKNSLYLQMNSLKTEDTAVYYCRYVHYGAYYGVDAWGQGTTVTVSS
VL: DIVMTQSPLSLPVTPGEPASISCRSSQSLVWSNRNTYLHWYQQKPGQAPRLLIYKVSNRFSGVPDRFSGSGSGTDFTLKISRVEAEDVGVYYCGQGTQVPYTFGQGTKLEIK
notes: one-arm IgG as m2
B7: GLS3000 H27dV (antibody, name in Kabat numbering, V domains shown)
VH: QVQLVESGGGVVQPGRSLRLSCAASGFTFSNAWMHWVRQAPGKGLEWVAQIKAKSNNYATYYAESVKGRFTISRDDSKNSLYLQMNSLKTEDTAVYYCRYVHYGAYYGVDAWGQGTTVTVSS
VL: DIVMTQSPLSLPVTPGEPASISCRSSQSLVVSNRNTYLHWYQQKPGQAPRLLIYKVSNRFSGVPDRFSGSGSGTDFTLKISRVEAEDVGVYYCGQGTQVPYTFGQGTKLEIK
notes: one-arm IgG as m2
B8: GLS3000 H27dQ (antibody, name in Kabat numbering, V domains shown)
VH: QVQLVESGGGVVQPGRSLRLSCAASGFTFSNAWMHWVRQAPGKGLEWVAQIKAKSNNYATYYAESVKGRFTISRDDSKNSLYLQMNSLKTEDTAVYYCRYVHYGAYYGVDAWGQGTTVTVSS
VL: DIVMTQSPLSLPVTPGEPASISCRSSQSLVQSNRNTYLHWYQQKPGQAPRLLIYKVSNRFSGVPDRFSGSGSGTDFTLKISRVEAEDVGVYYCGQGTQVPYTFGQGTKLEIK
notes: one-arm IgG as m2
B9: GLS3000 H34F (antibody, name in Kabat numbering, V domains shown)
VH: QVQLVESGGGVVQPGRSLRLSCAASGFTFSNAWMHWVRQAPGKGLEWVAQIKAKSNNYATYYAESVKGRFTISRDDSKNSLYLQMNSLKTEDTAVYYCRYVHYGAYYGVDAWGQGTTVTVSS
VL: DIVMTQSPLSLPVTPGEPASISCRSSQSLVHSNRNTYLFWYQQKPGQAPRLLIYKVSNRFSGVPDRFSGSGSGTDFTLKISRVEAEDVGVYYCGQGTQVPYTFGQGTKLEIK
notes: one-arm IgG as m2
B10: GLS3000 H34N (antibody, name in Kabat numbering, V domains shown)
VH: QVQLVESGGGVVQPGRSLRLSCAASGFTFSNAWMHWVRQAPGKGLEWVAQIKAKSNNYATYYAESVKGRFTISRDDSKNSLYLQMNSLKTEDTAVYYCRYVHYGAYYGVDAWGQGTTVTVSS
VL: DIVMTQSPLSLPVTPGEPASISCRSSQSLVHSNRNTYLNWYQQKPGQAPRLLIYKVSNRFSGVPDRFSGSGSGTDFTLKISRVEAEDVGVYYCGQGTQVPYTFGQGTKLEIK
notes: one-arm IgG as m2
B11: GLS3000 H34A (antibody, name in Kabat numbering, V domains shown)
VH: QVQLVESGGGVVQPGRSLRLSCAASGFTFSNAWMHWVRQAPGKGLEWVAQIKAKSNNYATYYAESVKGRFTISRDDSKNSLYLQMNSLKTEDTAVYYCRYVHYGAYYGVDAWGQGTTVTVSS
VL: DIVMTQSPLSLPVTPGEPASISCRSSQSLVHSNRNTYLAWYQQKPGQAPRLLIYKVSNRFSGVPDRFSGSGSGTDFTLKISRVEAEDVGVYYCGQGTQVPYTFGQGTKLEIK
notes: one-arm IgG as m2
B12: GLS3000 H27dR (antibody, name in Kabat numbering, V domains shown)
VH: QVQLVESGGGVVQPGRSLRLSCAASGFTFSNAWMHWVRQAPGKGLEWVAQIKAKSNNYATYYAESVKGRFTISRDDSKNSLYLQMNSLKTEDTAVYYCRYVHYGAYYGVDAWGQGTTVTVSS
VL: DIVMTQSPLSLPVTPGEPASISCRSSQSLVRSNRNTYLHWYQQKPGQAPRLLIYKVSNRFSGVPDRFSGSGSGTDFTLKISRVEAEDVGVYYCGQGTQVPYTFGQGTKLEIK
notes: one-arm IgG as m2
B13: GLS3000 H34K (antibody, name in Kabat numbering, V domains shown)
VH: QVQLVESGGGVVQPGRSLRLSCAASGFTFSNAWMHWVRQAPGKGLEWVAQIKAKSNNYATYYAESVKGRFTISRDDSKNSLYLQMNSLKTEDTAVYYCRYVHYGAYYGVDAWGQGTTVTVSS
VL: DIVMTQSPLSLPVTPGEPASISCRSSQSLVHSNRNTYLKWYQQKPGQAPRLLIYKVSNRFSGVPDRFSGSGSGTDFTLKISRVEAEDVGVYYCGQGTQVPYTFGQGTKLEIK
notes: one-arm IgG as m2
B14: GLS3000 H34P (antibody, name in Kabat numbering, V domains shown)
VH: QVQLVESGGGVVQPGRSLRLSCAASGFTFSNAWMHWVRQAPGKGLEWVAQIKAKSNNYATYYAESVKGRFTISRDDSKNSLYLQMNSLKTEDTAVYYCRYVHYGAYYGVDAWGQGTTVTVSS
VL: DIVMTQSPLSLPVTPGEPASISCRSSQSLVHSNRNTYLPWYQQKPGQAPRLLIYKVSNRFSGVPDRFSGSGSGTDFTLKISRVEAEDVGVYYCGQGTQVPYTFGQGTKLEIK
notes: one-arm IgG as m2
B15: GLS3000 H34M (antibody, name in Kabat numbering, V domains shown)
VH: QVQLVESGGGVVQPGRSLRLSCAASGFTFSNAWMHWVRQAPGKGLEWVAQIKAKSNNYATYYAESVKGRFTISRDDSKNSLYLQMNSLKTEDTAVYYCRYVHYGAYYGVDAWGQGTTVTVSS
VL: DIVMTQSPLSLPVTPGEPASISCRSSQSLVHSNRNTYLMWYQQKPGQAPRLLIYKVSNRFSGVPDRFSGSGSGTDFTLKISRVEAEDVGVYYCGQGTQVPYTFGQGTKLEIK
notes: one-arm IgG as m2
B16: GLS3000 H34G (antibody, name in Kabat numbering, V domains shown)
VH: QVQLVESGGGVVQPGRSLRLSCAASGFTFSNAWMHWVRQAPGKGLEWVAQIKAKSNNYATYYAESVKGRFTISRDDSKNSLYLQMNSLKTEDTAVYYCRYVHYGAYYGVDAWGQGTTVTVSS
VL: DIVMTQSPLSLPVTPGEPASISCRSSQSLVHSNRNTYLGWYQQKPGQAPRLLIYKVSNRFSGVPDRFSGSGSGTDFTLKISRVEAEDVGVYYCGQGTQVPYTFGQGTKLEIK
notes: one-arm IgG as m2
B17: GLS3000 H27dT (antibody, name in Kabat numbering, V domains shown)
VH: QVQLVESGGGVVQPGRSLRLSCAASGFTFSNAWMHWVRQAPGKGLEWVAQIKAKSNNYATYYAESVKGRFTISRDDSKNSLYLQMNSLKTEDTAVYYCRYVHYGAYYGVDAWGQGTTVTVSS
VL: DIVMTQSPLSLPVTPGEPASISCRSSQSLVTSNRNTYLHWYQQKPGQAPRLLIYKVSNRFSGVPDRFSGSGSGTDFTLKISRVEAEDVGVYYCGQGTQVPYTFGQGTKLEIK
notes: one-arm IgG as m2
B18: GLS3000 H27dY (antibody, name in Kabat numbering, V domains shown)
VH: QVQLVESGGGVVQPGRSLRLSCAASGFTFSNAWMHWVRQAPGKGLEWVAQIKAKSNNYATYYAESVKGRFTISRDDSKNSLYLQMNSLKTEDTAVYYCRYVHYGAYYGVDAWGQGTTVTVSS
VL: DIVMTQSPLSLPVTPGEPASISCRSSQSLVYSNRNTYLHWYQQKPGQAPRLLIYKVSNRFSGVPDRFSGSGSGTDFTLKISRVEAEDVGVYYCGQGTQVPYTFGQGTKLEIK
notes: one-arm IgG as m2
B19: GLS3000 H27dS (antibody, name in Kabat numbering, V domains shown)
VH: QVQLVESGGGVVQPGRSLRLSCAASGFTFSNAWMHWVRQAPGKGLEWVAQIKAKSNNYATYYAESVKGRFTISRDDSKNSLYLQMNSLKTEDTAVYYCRYVHYGAYYGVDAWGQGTTVTVSS
VL: DIVMTQSPLSLPVTPGEPASISCRSSQSLVSSNRNTYLHWYQQKPGQAPRLLIYKVSNRFSGVPDRFSGSGSGTDFTLKISRVEAEDVGVYYCGQGTQVPYTFGQGTKLEIK
notes: one-arm IgG as m2
B20: GLS3000 H27dN (antibody, name in Kabat numbering, V domains shown)
VH: QVQLVESGGGVVQPGRSLRLSCAASGFTFSNAWMHWVRQAPGKGLEWVAQIKAKSNNYATYYAESVKGRFTISRDDSKNSLYLQMNSLKTEDTAVYYCRYVHYGAYYGVDAWGQGTTVTVSS
VL: DIVMTQSPLSLPVTPGEPASISCRSSQSLVNSNRNTYLHWYQQKPGQAPRLLIYKVSNRFSGVPDRFSGSGSGTDFTLKISRVEAEDVGVYYCGQGTQVPYTFGQGTKLEIK
notes: one-arm IgG as m2
B21: GLS3000 H27dP (antibody, name in Kabat numbering, V domains shown)
VH: QVQLVESGGGVVQPGRSLRLSCAASGFTFSNAWMHWVRQAPGKGLEWVAQIKAKSNNYATYYAESVKGRFTISRDDSKNSLYLQMNSLKTEDTAVYYCRYVHYGAYYGVDAWGQGTTVTVSS
VL: DIVMTQSPLSLPVTPGEPASISCRSSQSLVPSNRNTYLHWYQQKPGQAPRLLIYKVSNRFSGVPDRFSGSGSGTDFTLKISRVEAEDVGVYYCGQGTQVPYTFGQGTKLEIK
notes: one-arm IgG as m2

What follows are binders tested against T1, CD3 epsilon homodimer protein (UniProt P07766 23-126) (assay: SPR Biacore T200, CD3e homodimer on chip, vs unaltered GLS3000 antibody).
T1 construct: also called CD3 (CD3 epsilon)
T1 sequence (P07766 23-126): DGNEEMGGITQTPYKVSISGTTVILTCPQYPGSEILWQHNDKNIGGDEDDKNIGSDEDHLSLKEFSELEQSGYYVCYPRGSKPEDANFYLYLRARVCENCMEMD

Compared with B1, B2 is lower in “ratio of amounts bound (Z=Y/X)” value: 0.3 for the first, 0.23 for the second.

First: B3
Second: B4
The “ratio of amounts bound (Z=Y/X)” value of the first is higher: 0.65 for the first, 0.22 for the second.

Compared with B5, B6 is lower in “ratio of amounts bound (Z=Y/X)” value: 0.59 for the first, 0.39 for the second.

Going from B7 to B8, the “ratio of amounts bound (Z=Y/X)” value falls from 0.3 to 0.25.

First: B9
Second: B10
The “ratio of amounts bound (Z=Y/X)” value of the first is lower: 0.27 for the first, 0.65 for the second.

Compared with B11, B12 is lower in “ratio of amounts bound (Z=Y/X)” value: 1.06 for the first, 0.31 for the second.

First: B13
Second: B14
The “ratio of amounts bound (Z=Y/X)” value of the first is higher: 2.17 for the first, 0.34 for the second.

Going from B15 to B16, the “ratio of amounts bound (Z=Y/X)” value rises from 0.35 to 1.02.

Compared with B17, B18 is higher in “ratio of amounts bound (Z=Y/X)” value: 0.29 for the first, 0.64 for the second.

Compared with B19, B20 is lower in “ratio of amounts bound (Z=Y/X)” value: 0.32 for the first, 0.3 for the second.

B21 was tested, and the “ratio of amounts bound (Z=Y/X)” value was 0.24.
